This experiment deals with soluble recombinant NadA_(Δ351-405) (rNadA), Neisseria meningitidis adhesin A lacking the membrane anchor region (Neisseria meningitidis) (UniProt Q8KH85). Briefly: SEC-MALS; rNadA 1,7 mg/ml in 10 mM NaH2PO4 150 mM NaCl pH 7.2, heated at 37°C for 30 min, 1, 2 and 4 hrs; TSK Super SW3000, eluted in 0.1 M NaH2PO4, 0,1 M NaHSO4 pH 7.0; MALLS detector Dawn TREOS. A general note: In gel filtration, larger molecules generally elute earlier.

With “soluble recombinant NadA_(Δ351-405) (rNadA), Neisseria meningitidis adhesin A lacking the membrane anchor region (from UniProt Q8KH85 1-350) (domain or fragment)”, the percent of the preparation present as the native trimer was determined as 95% and the stoichiometry N (in general, a count of units in the complex or per binding partner) amounted to 3.

These data come from publication PMC4210143.
